From patent publication US20090291081A1 (AbbVie / Abbott, published 2009)

T1: human IL-1α (human, UniProt P01583 113-271)
T1 construct: also called IL-1alpha; hIL-1α
T1 sequence (looked up): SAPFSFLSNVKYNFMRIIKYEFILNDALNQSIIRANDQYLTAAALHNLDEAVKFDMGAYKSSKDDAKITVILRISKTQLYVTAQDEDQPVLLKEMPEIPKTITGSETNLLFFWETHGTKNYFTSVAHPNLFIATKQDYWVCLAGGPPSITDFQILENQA


Experiments:
human IL-1α = target: T1, human IL-1α; test: Table 60 heading; dAbs from selection on antigen
human IL-1β [1] = target: T2, human IL-1β (human, UniProt P01584 117-269); test: yeast surface Fab display, flow cytometry titration
T2 construct: also called hIL-1β; rhIL-1 beta

human IL-1β [2] = target: T3, human IL-1β (human, UniProt P01584 117-269); test: Table 60 heading; dAbs from selection on antigen
T3 construct: also called IL-1beta; hIL-1β

Row | Binder | binding result (human IL-1α) | binding result (human IL-1β [2]) | other results
1 | ABT1-122-750xH (other, VK dAb) VL: DIQMTQSPSSLSASVGDRVAITCSASQHIWTEISWYQQKPGKAPKLLIYGSASRQKGVPSRFSGSGSGTDFTLTISSLQPEDFATYHCKQFAYFPNTFGQGTKVEIKR | binds |  | 
2 | ABT1-95-A4 (other, VK dAb) VL: DIQMTQSPSSLSASVGDRVTITCRASRPGVRNLRWYQQKPGKAPKLLIYSRSFLEPGVPSRFSGSGSGTDFTLTISSLQPEDFATYHCLQGYRWPPTFGQGTKVEIKR | binds |  | 
3 | ABT1-95-A1 (other, VK dAb) VL: DIQMTQSPSSLSASVGDRVTITCRASRPGVRNLRWYQQKPGKAPKLLIYHVSDLEPGVPSRFSGSGSGTDFTLTISSLQPEDFATYHCRQGYVWPVPFDQGTKVEIKR | binds |  | 
4 | ABT1-222 (other, VK dAb) VL: DIQMTQSPSSLSASVGDRVTITCRASQPITRNLRWYQQKPGKAPKLLIYHSSVLQSGVPSRFSGSGSGTDFTLTISSLQPEDFATYYCQQGYRWPVTFGQGTKVEIKR | binds |  | 
5 | ABT1-122-553 (other, VK dAb) VL: DIQMTQSPSSLSASVGDRVTITCRASQPIWTELKWYQQKPGKAPKLLIYGSSSLQSGVPSRFSGSGSGTDFTLTISSLQPEDFATYYCQQFAYFPATFGQGTKVEIKR | binds |  | 
6 | ABT2-108/ABT1-122 Fab on yeast surface (Fab, V domains shown) VH: EVQLLESGGGLVQPGGSLRLSCAASGFTFAEYTMMWVRQAPGKGLEWVSRIGQDGKNTYYADSVKGRFTISRDNSKNTLYLQMNSLRAEDTAVYYCAKYTGRVGVHHLFDYWGQGTLVTVSS VL: DIQMTQSPSSLSASVGDRVTITCRASQPIWTELNWYQQKPGKAPKLLIYGSSSLQSGVPSRFSGSGSGTDFTLTISSLQPEDFATYYCQQFAYFPATFGQGTKVEIKR |  |  | EC50 (human IL-1β [1]): 5.78 nM
7 | ABT1-122-750MT (other, VK dAb) VL: DIQMTQSPSSLSASVGDRVTITCSASQHIWTEMSWYQQKPGKTPKLLIYGSASRQKGVPSRFSGSGSGTDFTLTISSLQPEDFATYYCKQFAYFPNTFGQGTKVEIKR | binds |  | 
8 | ABT1-122-505 (other, VK dAb) VL: DIQMTQSPSSLSASVGDRVTITCRASQPIWTELNWYQQKPGKAPKLLIYGSSSLQSGVPSRFSGSGSGTDFTLTISSLQPEDFATYYCKQFAYFPATFGQGTKVEIKR | binds |  | 
9 | ABT1-122-551 (other, VK dAb) VL: DIQMTQSPSSLSASVGDRVTITCRAKFNIWTELNWYQQKPGKTPKLLIYGSSSLQSGVPSRFSGSGSGTDFTLTISSLQPEDFATYYCQQFAYFPATFGQGTKVEIKR | binds |  | 
10 | ABT1-122-508 (other, VK dAb) VL: DIQMTQSPSSLSASVGDRVTITCRASQPIWTELNWYQQKPGKAPKLLIYGSSSLQRGVPSRFSGSGSGTDFTLTISSLQPEDFATYYCQQFAYFPATFGQGTKVEIKR | binds |  | 
11 | ABT1-122-513 (other, VK dAb) VL: DIQMTQSPSSLSASVGDRVTITCRASQPIWTELNWYQQKPGKAPKLLIYGSGSRQRGVPSRFSGSGSGTDFTLTISSLQPEDFATYYCKQFAYFPATFGQGTKVEIKR | binds |  | 
12 | ABT1-122-555 (other, VK dAb) VL: DIQMTQSPSSLSASVGDRVTITCRASQPIWTELNWYQQKPGKTPKLLIYGSSSLQSGVPSRFSGSGSGTDFTLTISSLQPEDFATYYCQQFAYFPATFGQGTKVEIKR | binds |  | 
13 | ABT1-122-512 (other, VK dAb) VL: DIQMTQSPSSLSASVGDRVTITCRASQPIWTELNWYQQKPGKAPKLLIYGSAKRQRGVPSRFSGSGSGTDFTLTISSLQPEDFATYYCKQFAYFPATFGQGTKVEIKR | binds |  | 
14 | ABT1-122-510 (other, VK dAb) VL: DIQMTQSPSSLSASVGDRVTITCRFSYPIWTELNWYQQKPGKAPKLLIYGSSSLQSGVPSRFSGSGSGTDFTLTISSLQPEDFATYYCQQFAYFPATFGQGTKVEIKR | binds |  | 
15 | ABT2-108-601/ABT1-122 Fab on yeast surface (Fab, V domains shown) VH: EVQLLESGGGLVQPGGSLRLSCAASGFTFAEESWMWVRQAPGKGLEWVSRIGQDGKNTYYADSVKGRFTISRDNSKNTLYLQMNSLRAEDTAVYYCAKYTGRVGVHHLFDYWGQGTLVTVSS VL: DIQMTQSPSSLSASVGDRVTITCRASQPIWTELNWYQQKPGKAPKLLIYGSSSLQSGVPSRFSGSGSGTDFTLTISSLQPEDFATYYCQQFAYFPATFGQGTKVEIKR |  |  | EC50 (human IL-1β [1]): 0.522 nM

Second part, led by results:

Row | binding result (human IL-1α) | binding result (human IL-1β [2]) | Binder | other results
16 | binds |  | ABT1-122-552 (other, VK dAb) VL: DIQMTQSPSSLSASVGDRVTITCRASLGVWTELNWYQQKPGKAPKLLIYGSSSLQSGVPSRFSGSGSGTDFTLTISSLQPEDFATYYCQQFAYFPATFGQGTKVEIKR | 
17 | binds |  | ABT1-122-556 (other, VK dAb) VL: DIQMTQSPSSLSASVGDRVTITCRASQPIWTELNWYQQKPGKAPKLLIYGSSSLQSGVPSRFSGSGSGTDFTLTISSLQPEDFATYHCQQFAYFPATFGQGTKVEIKR | 
18 | binds |  | ABT1-122-750MH (other, VK dAb) VL: DIQMTQSPSSLSASVGDRVTITCSASQHIWTEMSWYQQKPGKAPKLLIYGSASRQKGVPSRFSGSGSGTDFTLTISSLQPEDFATYHCKQFAYFPNTFGQGTKVEIKR | 
19 | binds |  | ABT1-122-750M (other, VK dAb) VL: DIQMTQSPSSLSASVGDRVTITCSASQHIWTEMSWYQQKPGKAPKLLIYGSASRQKGVPSRFSGSGSGTDFTLTISSLQPEDFATYYCKQFAYFPNTFGQGTKVEIKR | 
20 |  | binds | ABT2-108-605 (other, VH dAb) VH: EVQLLESGGGLVQPGGSLRLSCAASGFTFAEYTMMWVRQAPGKGLEWVSRIGQDGKNTYYREDVKGRFTISRDNSKNTLYLQMNSLRAEDTAVYYCAKYTGRVGVHHLFDYWGQGTLVTVSS | 
21 |  | binds | ABT2-108-604 (other, VH dAb) VH: EVQLLESGGGLVQPGGSLRLSCAASGFTFAEYTMMWVRQAPGKGLEWVSRVTYDGKNTYYADSVKGRFTISRDNSKNTLYLQMNSLRAEDTAVYYCAKYTGRVGVHHLFDYWGQGTLVTVSS | 
22 |  | binds | ABT2-108-620S (other, VH dAb) VH: EVQLLESGGGLVQPGGSLRLSCAASGFTFSEESWMWVRQAPGKGLEWVSRIGQDGKNTYYREDVKGRFTISRDNSKNTLYLQMNSLRAEDTAVYYCAKYTGRIMGHHLFDYWGQGTLVTVSS | 
23 |  | binds | ABT2-108-601 (other, VH dAb) VH: EVQLLESGGGLVQPGGSLRLSCAASGFTFAEESWMWVRQAPGKGLEWVSRIGQDGKNTYYADSVKGRFTISRDNSKNTLYLQMNSLRAEDTAVYYCAKYTGRVGVHHLFDYWGQGTLVTVSS | 
24 |  | binds | ABT2-108-617 (other, VH dAb) VH: EVQLLESGGGLVQPGGSLRLSCAASGFTFAEYTMMWVRQAPGKGLEWVSRIGQDGKNTYYADSVKGRFTISRDNSKNTLYLQMNSLRAEDTAVYYCAKYTGRIFTHHLFDYWGQGTLVTVSS | 
25 |  | binds | ABT2-108-607 (other, VH dAb) VH: EVQLLESGGGLVQPGGSLRLSCAASGFTFAEYTMMWVRQAPGKGLEWVSRIGQDGKNTYYRSDVKGRFTISRDNSKNTLYLQMNSLRAEDTAVYYCAKYTGRVGVHHLFDYWGQGTLVTVSS | 
26 |  | binds | ABT2-108-612 (other, VH dAb) VH: EVQLLESGGGLVQPGGSLRLSCAASGFTFAEYTMMWVRQAPGKGLEWVSRIGQDGKNTYYADSVKGRFTISRDNSKNTLYLQMNSLRAEDTAVYYCAKYTGRIMGHHLFDYWGQGTLVTVSS | 
27 |  | binds | ABT2-108-602 (other, VH dAb) VH: EVQLLESGGGLVQPGGSLRLSCAASGFTFAEEKYMWVRQAPGKGLEWVSRIGQDGKNTYYADSVKGRFTISRDNSKNTLYLQMNSLRAEDTAVYYCAKYTGRVGVHHLFDYWGQGTLVTVSS | 
28 |  | binds | ABT2-108-534x (other, VH dAb) VH: EVQLLESGGGLVQPGGSLRLSCAASGFTFADEGMMWVRQAPGKGLEWVSRITYSGKNTYYADSVKGRFTISRDNSKNTLYLQMNSLRAEDTAVYYCAKYTGRIFSHHLFDYWGQGTLVTVSS | 
29 |  | binds | ABT2-108-606 (other, VH dAb) VH: EVQLLESGGGLVQPGGSLRLSCAASGFTFAEYTMMWVRQAPGKGLEWVSRIGQDGKNTYYRSSVKGRFTISRDNSKNTLYLQMNSLRAEDTAVYYCAKYTGRVGVHHLFDYWGQGTLVTVSS | 
30 |  | binds | ABT2-108-620x (other, VH dAb) VH: EVQLLESGGGLVQPGGSLRLSCAASGFTFAEESWMWVRQAPGKGLEWVSRIGQDGKNTYYREDVKGRFTISRDNSKNTLYLQMNSLRAEDTAVYYCAKYTGRIMGHHLFDYWGQGTLVTVSS | 
31 |  | binds | ABT2-108-603 (other, VH dAb) VH: EVQLLESGGGLVQPGGSLRLSCAASGFTFAEYTMMWVRQAPGKGLEWVSRITDAGKNTYYADSVKGRFTISRDNSKNTLYLQMNSLRAEDTAVYYCAKYTGRVGVHHLFDYWGQGTLVTVSS | 
32 | binds |  | ABT1-207 (other, VH dAb) VH: EVQLLESGGGLIQPGGSLRLSCAASGFTFGRYYMSWVRQAPGKGLEWVSSIDYLGTNTYYADSVKGRFTISRDNSKNTLYLQMNSLRAEDTAVYYCAKLTRIRPPNFDYWGQGTLVTVSS | 
